Consider 18 substances from patent US20080299140A1, “Immunogenic Composition and Peptide Sequences for Prevention and Treatment of an Hsv Condition” (priority 2002, published 2008).

The target of assay [1] is HLA-DR(α1*0101,α1*0701) (human). The experiment in a line: competition assay on purified HLA; tracer YKL.
The target in assay [2] is HLA-DR(α1*0101,α4*0101) (human). The experiment in a line: competition assay on purified HLA; tracer E2/E168.
Assay [3] addresses HLA-DR(α1*0101,α1*0301) (human). Put plainly: competition assay on purified HLA; tracer MT (2-16).
In assay [4] the target is HLA-DR(α1*0101,α1*1301) (human). Put plainly: competition assay on purified HLA; tracer B1 (21-36).
Assay [5] addresses HLA-DR(α1*0101,α1*1501) (human). Put plainly: competition assay on purified HLA; tracer A3 (152-166).
In assay [6] the target is HLA-DR(α1*0101,α1*0101) (human). Put plainly: competition assay on purified HLA; tracer HA (307-319).
The target in assay [7] is HLA-DR(α1*0101,α1*1101) (human). The assay is described as above.
The target of assay [8] is HLA-DR(α1*0101,α5*0101) (human). Described as above.
Assay [9] concerns the target HLA-DP(α1*0101,α1*0401) (human). The experiment in a line: competition assay on purified HLA; tracer bOxy 271-287.
Assay [10] concerns the target HLA-DR(α1*0101,α3*0101) (human). Put plainly: competition assay on purified HLA; tracer LOL (191-210).
The target in assay [11] is DP401=HLA-DP(α1*0101,α1*0401) (human). Put plainly: HLA class II competition binding assay, biotinylated tracer peptide.
Assay [12] deals with DR11=HLA-DR(α1*0101,α1*1101) (human). The description is as above.
In assay [13] the target is DR13=HLA-DR(α1*0101,α1*1301) (human). The description is as above.
Assay [14] addresses DR15=HLA-DR(α1*0101,α1*1501) (human). The description is as above.
In assay [15] the target is DR1=HLA-DR(α1*0101,α1*0101) (human). The description is as above.
The target in assay [16] is DR3=HLA-DR(α1*0101,α1*0301) (human). Described as above.
Assay [17] addresses DR7=HLA-DR(α1*0101,α1*0701) (human). The assay is described as above.
Assay [18] concerns the target DRB3=HLA-DR(α1*0101,α3*0101) (human). The assay is described as above.
Assay [19] deals with DRB4=HLA-DR(α1*0101,α4*0101) (human). The description is as above.
Assay [20] addresses DRB5=HLA-DR(α1*0101,α5*0101) (human). The assay is described as above.
Assay [21] addresses DP (α1*0101, α1*0402) (human). The experiment in a line: competition assay on purified HLA; tracer bOxy 271-287.
In assay [22] the target is DP402=HLA-DR(α1*0101,α1*0402) (human). Put plainly: HLA class II competition binding assay, biotinylated tracer peptide.
The target of assay [23] is HLA-DR(α1*0101,α1*0401) (human). The experiment in a line: competition assay on purified HLA; tracer HA (307-319).
Assay [24] addresses DR4=HLA-DR(α1*0101,α1*0401) (human). Put plainly: HLA class II competition binding assay, biotinylated tracer peptide.

Broadly, the IC50 is the midpoint of a concentration-inhibition curve. Higher therefore signals a need for much substance. As for HSV1 1 (gB809-840) (peptide), the IC50 in [1] is 0.296 µM; in assay [2], 0.043 µM; in assay [3], 0.995 µM; in assay [4], 0.284 µM; in assay [5] it was 0.003 µM; in assay [6], 0.006 µM. Besides, the IC50 is 0.013 µM in assay [7]; 0.006 µM in [8]; 1.61 µM in assay [9]; > 100 µM in [10]; 1.61 µM in [11]; 0.013 µM in assay [12]. In addition, the IC50 in assay [13] is 0.284 µM; in [14], 0.003 µM; in [15], 0.006 µM; in assay [16], 0.995 µM; in [17], 0.296 µM; in assay [18] it was > 100 µM. Also, the IC50 in assay [19] came out at 0.043 µM; in [20], 0.006 µM.
Consider HSV1 2 (gB401-433) (peptide), for which the IC50 in assay [1] was 0.001 µM; in assay [3] it was > 100 µM; in assay [4] it was > 100 µM; in [5] it was 0.06 µM; in assay [6] it was < 0.001 µM; in [10], > 100 µM. For the same substance, the IC50 was > 100 µM in [13]; 0.06 µM in [14]; < 0.001 µM in [15]; > 100 µM in [16]; 0.001 µM in assay [17]; > 100 µM in [18].
For HSV1 3 (gB111-140) (peptide), the IC50 in [4] came to 0.5 µM; in assay [5], 0.03 µM; in assay [9], 0.08 µM; in assay [11] it was 0.06 µM.
In the case of HSV1 4 (gB424-445) (peptide), the IC50 in assay [3] is > 100 µM; in [6] it was 0.03 µM; in assay [10], > 100 µM; in assay [15], 0.03 µM; in assay [16], > 100 µM; in assay [18], > 100 µM.
Regarding HSV1 5 (gB173-204) (peptide), the half-inhibitory concentration (IC50) in [2] and in assay [19] was 90 µM in each case.
As for HSV1 6 (gB243-282) (peptide), the IC50 was 4 µM in assay [3]; 0.001 µM in assay [5]; 0.001 µM in [6]; 0.009 µM in [8]; 0.001 µM in assay [14]; 0.001 µM in assay [15]. Further, the figures for the IC50 in [16] and in assay [20] were 4 µM and 0.009 µM, respectively.
HSV1 7 (gB631-661) (peptide): the half-maximal inhibitory concentration (IC50) in assay [3] is > 100 µM; in assay [4], > 100 µM; in assay [5], 0.06 µM; in assay [13], > 100 µM; in [14], 0.06 µM; in assay [16], > 100 µM.
Consider HSV1 8 (gB765-799) (peptide), for which the IC50 came to 0.02 µM in [1]; 0.232 µM in [2]; 4.78 µM in assay [3]; 0.314 µM in assay [4]; 0.003 µM in assay [5]; 0.002 µM in assay [6]. Besides, the concentration for half-maximal inhibition (IC50) in assay [7] is 0.004 µM; in [8], 0.002 µM; in [9] it was 0.107 µM; in assay [10], 55 µM; in [11], 0.107 µM; in [12], 0.004 µM. In addition, the IC50 in [13] was found to be 0.314 µM; in [14] it was 0.003 µM; in assay [15], 0.002 µM; in assay [16] it was 4.78 µM; in [17] it was 0.02 µM; in [18], 55 µM. Also, the IC50 in assay [19] stood at 0.232 µM; in [20], 0.002 µM.
For the substance HSV1 10 (gB80-106) (peptide), the 50% inhibitory concentration (IC50) in [10] and in assay [18] was > 100 µM in each case.
Take HSV1 11 (gB453-483) (peptide): the IC50 is 0.03 µM in assay [1]; > 100 µM in assay [3]; > 100 µM in [4]; > 100 µM in assay [10]; > 100 µM in assay [13]; > 100 µM in assay [16]. The IC50 was 0.03 µM in assay [17] and > 100 µM in assay [18].
As to HSV1 12 (gB568-594) (peptide), the IC50 in assay [3], in assay [4], in assay [13] and in assay [16] was > 100 µM each time.
Turning to HSV1 13 (gB590-612) (peptide), the half-inhibitory concentration (IC50) in [21], in assay [9], in assay [11] and in [22] was > 100 µM in each case.
Take HSV1 14 (gB607-634) (peptide): the IC50 in assay [3] and in [10] was > 100 µM each time.
For the substance HSV1 30 (gD0-28) (peptide), the IC50 in assay [1] was 0.374 µM; in assay [2], > 100 µM; in assay [4], > 100 µM; in assay [5] it was 11 µM; in assay [7], 0.648 µM; in assay [8] it was 0.007 µM. The IC50 in [21] was found to be 3.79 µM; in assay [9], 17.9 µM; in [10] it was 0.535 µM; in [11], 17.7 µM; in assay [22] it was 3.79 µM; in assay [12] it was 0.648 µM. The IC50 in assay [13] was > 100 µM; in assay [14] it was 11 µM; in assay [16], 0.079 µM; in assay [17], 0.374 µM; in assay [18], 0.535 µM; in assay [19], > 100 µM. This substance gave an IC50 in assay [20] of 0.007 µM.
As for HSV1 32 (gD77-104) (peptide), the IC50 in [1] was determined as 0.004 µM; in [3], 2.35 µM; in assay [7], 0.3 µM; in assay [8] it was 0.001 µM; in [21], 0.381 µM; in [9] it was 1.45 µM. For the same substance, the half-maximal inhibitory concentration (IC50) in assay [10] is > 100 µM; in assay [11], 1.45 µM; in [22], 0.381 µM; in assay [12] it was 0.3 µM; in assay [16] it was 2.35 µM; in assay [17], 0.004 µM. For the same substance, the results for the concentration for half-maximal inhibition (IC50) in [18] and in assay [20] were > 100 µM and 0.001 µM, respectively.
As for HSV1 34 (gD146-179) (peptide), the 50% inhibitory concentration (IC50) in assay [1] is 0.316 µM; in assay [2], 0.743 µM; in assay [3], 10.2 µM; in assay [4] it was > 100 µM; in [5], 0.035 µM; in assay [6], 0.04 µM. The 50% inhibitory concentration (IC50) in assay [23] was found to be 0.632 µM; in [7], 0.175 µM; in [8] it was 0.085 µM; in assay [9] it was 0.115 µM; in [10], 2.02 µM; in assay [11], 0.115 µM. Moreover, the IC50 in assay [12] was 0.175 µM; in [13] it was > 100 µM; in assay [14], 0.035 µM; in [15], 0.04 µM; in assay [16] it was 10.2 µM; in assay [24], 0.632 µM. The 50% inhibitory concentration (IC50) in assay [17] was 0.316 µM; in [18], 2.02 µM; in [19], 0.743 µM; in [20] it was 0.085 µM.
On to HSV1 38 (gD176-206) (peptide), for which the half-inhibitory concentration (IC50) amounted to 0.021 µM in assay [1]; 1.8 µM in [2]; 1.34 µM in assay [3]; 0.2 µM in [4]; 0.054 µM in assay [6]; 0.955 µM in assay [23]. Further, the 50% inhibitory concentration (IC50) in assay [7] came out at 0.005 µM; in [8], 0.091 µM; in assay [9] it was 0.091 µM; in assay [10] it was 25 µM; in assay [11], 0.091 µM; in assay [12] it was 0.005 µM. In addition, the IC50 in assay [13] was determined as 0.2 µM; in [15] it was 0.054 µM; in assay [16], 1.34 µM; in assay [24] it was 0.955 µM; in assay [17] it was 0.021 µM; in assay [18], 25 µM. The figures for the IC50 in assay [19] and in [20] were 1.8 µM and 0.091 µM, respectively.
Turning to HSV1 41 (gD96-123) (peptide), the IC50 in assay [2] was 1.67 µM; in assay [4] it was 4.76 µM; in assay [5], 0.167 µM; in [6] it was 0.003 µM; in assay [7] it was 0.598 µM; in assay [9], 0.257 µM. For the same substance, the 50% inhibitory concentration (IC50) in assay [10] was > 100 µM; in assay [11], 0.267 µM; in assay [12], 0.598 µM; in assay [13], 4.76 µM; in assay [14], 0.167 µM; in assay [15], 0.003 µM. The values for the IC50 in [18] and in assay [19] were > 100 µM and 1.67 µM, respectively.
